NFAT β-galactosidase reporter activity of B3Z-mDNGR-1-Syk cells, titration of an equimolar mixture of F-actin and myosin II against F-actin alone, percent of MutuDCs associated with beads and NFAT β-galactosidase reporter activity of B3Z-mDNGR-1-Syk cells, titration of in vitro polymerized F-actin data for three substances are collected here from PMC6057488.

Bounds are passed on as bounds.

The target in test [1] is mouse DNGR-1 on B3Z-mDNGR-1-Syk reporter cells (mouse) (UniProt Q8BRU4).
The target in test [2] is DNGR-1 on cDC1s (mouse (endogenous in MutuDC1940 cells and splenic cDC1s)) (UniProt Q8BRU4). Briefly: flow cytometry on cells; red fluorescent streptavidin beads, uncoated or coated with F-actin or F-actin and myosin II, with GFP-expressing MutuDC1940 cells for 2 hr at 37°C; with isotype control or anti-DNGR-1 antibody 1F6. On the technique in general: A flow cytometer gives signals particle by particle.

For the substance “F-actin and myosin II complexes (from UniProt P68135 1-377; Q28641 1-1938; P02602 1-192; P02608 1-170)”, in test [1], the NFAT β-galactosidase reporter activity of B3Z-mDNGR-1-Syk cells, titration of an equimolar mixture of F-actin and myosin II against F-actin alone was found to be 2 log.

For the substance “beads coated with biotinylated F-actin and myosin II (from UniProt P68135 1-377; Q28641 1-1938; P02602 1-192; P02608 1-170) (complex)”, the percent of MutuDCs associated with beads in test [2] is below 50%.

Consider “in vitro polymerized F-actin (from UniProt P68135 1-377) (natural protein)”, for which the NFAT β-galactosidase reporter activity of B3Z-mDNGR-1-Syk cells, titration of in vitro polymerized F-actin in test [1] is above 1 µM.
